B1: unnamed (protein)
chain: MRPPQCLLHTPSLASPLLLLLLWLLGGGVGAEGREDAELLVTVRGGRLRGIRLKTPGGPVSAFLGIPFAEPPMGPRRFLPPEPKQPWSGVVDATTFQSVCYQAVDTLYPGFEGTEMWNPNRELSEDCLYLNVWTPYPRPTSPTPVLVWIYGGGFYSGASSLDVYDGRFLVQAERTVLVSMNYRVGAFGFLALPGSREAPGNVGLLDQRLALQWVQENVAAFGGDPTSVTLFGESAGAASVGMHLLSPPSRGLFHRAVLQSGAPNGPWATVGMGEARRRATQLAHLVGCPPGGTGGNDTELVACLRTRPAQVLVNHAAHVLPQESVFRFSFVPVVDGDFLSDTPEALINAGDFHGLQVLVGVVKDEGSYFLVYGAPGFSKDNESLISRAEFLAGVRVGVPQVSDLAAEAVVLHYTDWLHPEDPARLREALSDVVGDHNVVCPVAQLAGRLAAQGARVYAYVFEHRASTLSWPLWMGVPHGYEIEFIFGIPLDPSRNYTAEEKIFAQRLMRYWANFARTGDPNEPRDPKAPQWPPYTAGAQQYVSLDLRPLEVRRGLRAQACAFWNRFLPKLLSATDTLDEAERQWKAEFHRWSSYMVHWKNQFDHYSKQDRCSDL
B2: unnamed (protein)
chain: B1 chain with A316E, A317W
B3: unnamed (protein)
chain: B1 chain with A103Y, A316E, A317W, Y368A
B4: unnamed (protein)
chain: B1 chain with A103Y, A317W
B5: unnamed (protein)
chain: B1 chain with A317W
B6: unnamed (protein)
chain: B1 chain with A103Y, A316E, A317W, F328A
B7: unnamed (protein)
chain: B1 chain with A103Y, A316E, A317W, Y372A
B8: unnamed (protein)
chain: B1 chain with A103Y, D105N, A316E, A317W
B9: unnamed (protein)
chain: B1 chain with A316E

Results on nine proteins are retold here after the PETadex activity labels (doi:10.1016/s0021-9258(17)37371-4).

Substitutions are numbered along the chain they refer to.

Substrate in this data set: Acetylcholine
To be noted: pH 8; 27 °C.
As for B1, the Michaelis-Menten constant (Km) stood at 300 µM, the kcat is 3330 s⁻¹ and the kcat/Km turned out to be 1.11e+07 M⁻¹ s⁻¹.
Take B2: the Michaelis constant (Km) came out at 130 µM, the catalytic constant (kcat) came out at 6330 s⁻¹ and the specificity constant (kcat/Km) turned out to be 4.87e+07 M⁻¹ s⁻¹.
B3: the Km amounted to 100 µM, the kcat is 1670 s⁻¹ and the kcat/Km worked out at 1.67e+07 M⁻¹ s⁻¹.
Consider B4, for which the Km turned out to be 280 µM, the turnover number (kcat) was 6330 s⁻¹ and the specificity constant (kcat/Km) came out at 2.26e+07 M⁻¹ s⁻¹.
In the case of B5, the Km turned out to be 240 µM, the kcat came out at 6670 s⁻¹ and the specificity constant (kcat/Km) came to 2.78e+07 M⁻¹ s⁻¹.
The matching figures for B6: 310 µM, 2000 s⁻¹ and 6.45e+06 M⁻¹ s⁻¹.
Turning to B7, the Km stood at 300 µM, the kcat turned out to be 4170 s⁻¹ and the catalytic efficiency (kcat/Km) stood at 1.39e+07 M⁻¹ s⁻¹.
In the same order, the values of B8 are 600 µM, 4170 s⁻¹ and 6.94e+06 M⁻¹ s⁻¹.
The matching figures for B9: 300 µM, 7000 s⁻¹ and 2.33e+07 M⁻¹ s⁻¹.

Usually Km stands for the substrate concentration at which the rate is half of its maximum. For orientation: kcat means the maximal rate divided by the concentration of active sites. The kcat/Km is the turnover number divided by the Michaelis constant.
